Measured values from patent publication US20150344888A1 (published 2015).

T1: UCHL3 (UniProt P15374 1-230)
T1 chain: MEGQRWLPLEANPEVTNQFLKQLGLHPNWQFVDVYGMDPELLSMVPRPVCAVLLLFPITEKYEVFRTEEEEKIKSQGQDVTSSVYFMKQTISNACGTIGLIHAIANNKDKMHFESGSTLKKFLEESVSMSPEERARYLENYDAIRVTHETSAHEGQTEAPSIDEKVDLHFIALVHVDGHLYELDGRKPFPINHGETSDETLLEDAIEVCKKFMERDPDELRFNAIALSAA

T2: USP5 (UniProt P45974 1-858)
T2 chain: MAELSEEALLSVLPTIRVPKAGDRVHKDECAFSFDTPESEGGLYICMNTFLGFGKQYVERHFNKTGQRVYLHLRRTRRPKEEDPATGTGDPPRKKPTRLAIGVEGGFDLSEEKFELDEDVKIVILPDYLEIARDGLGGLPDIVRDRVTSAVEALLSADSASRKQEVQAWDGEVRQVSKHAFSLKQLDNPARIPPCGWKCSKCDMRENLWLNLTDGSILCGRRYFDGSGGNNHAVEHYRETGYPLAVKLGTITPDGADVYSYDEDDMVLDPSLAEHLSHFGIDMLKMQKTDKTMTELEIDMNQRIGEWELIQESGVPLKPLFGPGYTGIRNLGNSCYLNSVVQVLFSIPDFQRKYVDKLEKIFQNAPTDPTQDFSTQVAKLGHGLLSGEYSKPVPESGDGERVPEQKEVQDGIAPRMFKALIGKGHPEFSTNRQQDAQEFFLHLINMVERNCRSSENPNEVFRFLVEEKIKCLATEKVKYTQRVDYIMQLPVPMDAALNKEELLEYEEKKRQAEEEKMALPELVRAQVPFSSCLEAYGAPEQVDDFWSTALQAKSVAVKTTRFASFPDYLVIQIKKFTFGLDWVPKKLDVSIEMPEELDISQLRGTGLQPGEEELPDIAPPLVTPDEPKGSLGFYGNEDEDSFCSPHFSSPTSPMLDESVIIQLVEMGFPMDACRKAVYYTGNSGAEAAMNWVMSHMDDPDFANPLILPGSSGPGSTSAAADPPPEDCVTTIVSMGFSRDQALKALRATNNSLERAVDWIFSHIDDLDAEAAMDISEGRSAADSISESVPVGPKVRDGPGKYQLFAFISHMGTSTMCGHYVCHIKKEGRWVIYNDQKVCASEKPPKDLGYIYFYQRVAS

T3: USP2 (UniProt O75604 259-605)
T3 chain: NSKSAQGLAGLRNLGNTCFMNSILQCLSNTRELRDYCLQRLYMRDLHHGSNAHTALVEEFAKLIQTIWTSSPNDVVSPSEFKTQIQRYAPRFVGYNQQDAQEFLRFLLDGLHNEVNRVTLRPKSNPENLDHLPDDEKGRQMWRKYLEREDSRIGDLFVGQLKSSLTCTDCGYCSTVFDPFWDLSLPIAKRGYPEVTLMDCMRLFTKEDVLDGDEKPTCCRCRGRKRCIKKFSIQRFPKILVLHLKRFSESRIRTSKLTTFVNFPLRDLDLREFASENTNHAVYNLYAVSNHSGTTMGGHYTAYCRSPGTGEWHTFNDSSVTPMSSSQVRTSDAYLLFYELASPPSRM

T4: USP30 (active enzyme in the ubiquitin-AMC assay) (UniProt Q70CQ3 57-517)
T4 chain: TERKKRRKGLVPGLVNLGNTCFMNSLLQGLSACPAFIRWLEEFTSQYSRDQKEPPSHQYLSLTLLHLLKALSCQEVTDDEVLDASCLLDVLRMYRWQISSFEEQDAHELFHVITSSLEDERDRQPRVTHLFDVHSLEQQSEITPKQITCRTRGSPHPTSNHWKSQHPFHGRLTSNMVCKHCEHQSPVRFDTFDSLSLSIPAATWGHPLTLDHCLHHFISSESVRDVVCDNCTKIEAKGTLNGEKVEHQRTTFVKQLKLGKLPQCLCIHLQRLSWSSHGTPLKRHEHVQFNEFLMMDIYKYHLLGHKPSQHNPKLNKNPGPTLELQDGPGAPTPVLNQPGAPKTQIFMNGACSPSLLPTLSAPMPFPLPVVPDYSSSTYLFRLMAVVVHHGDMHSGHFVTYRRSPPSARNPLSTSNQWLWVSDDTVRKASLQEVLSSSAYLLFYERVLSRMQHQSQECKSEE


What was measured:
Experiment in all cases: ubiquitin-AMC enzyme inhibition
USP7 = target: USP7
UCHL3 = target: T1, UCHL3
USP5 = target: T2, USP5
USP2 = target: T3, USP2
[1] = target: T4, USP30 (active enzyme in the …)

Row | IC50 (USP7) | IC50 (UCHL3) | IC50 (USP5) | IC50 (USP2) | IC50 [1] | Binder
1 | 31.7 µM |  |  |  |  | VSRCYIFWNEMFCDVE [pep8]
2 |  | 194 µM | 42.9 µM | ~200 µM | 121 µM | VSRCYIFWNEMFCDVE [peptide USP30-8]
